Reference: patent publication US20250177546A1 (SANYOU BIOPHARMACEUTICALS, published 2025)

What was measured:
[1] = target: T1, human ROR1 on cells (full-length human ROR1 on huROR1-HEK293 cells; human ROR1 on A549 and HT-29 tumor cells) (human, UniProt Q01973 30-937); assay: flow cytometry (FACS) on A549 tumor cells, anti-human IgG-Fc secondary antibody, MFI
T1 construct: whole, on cells; also called hROR1-HEK293T; A549 tumor cells
Method: (§1) The specific method was as follows: A549 cells or HT-29 cells in the logarithmic growth phase were prepared to a single-cell suspension, the density was adjusted to 1×10⁶ cells/mL, 100 µL/well was added to a 96-well round-bottom plate, then centrifuged at 4° C., 300 g, and the supernatant was removed. […] After the incubation, the cell mixture was washed three times and then 100 μL of 1:300 diluted secondary antibody Goat F(ab′)₂ Anti-Human IgG-Fc (abcam, ab98596) was added. The mixture was incubated at 4° C. in the dark for 30 min. After washing three times, the cells were detected by flow cytometry (Beckman, CytoFLEX AOO-1-1102).

[2] = target: T1, human ROR1 on cells (full-length human …); assay: flow cytometry (FACS) on HT29 (HT-29) tumor cells, anti-human IgG-Fc secondary antibody, MFI
Method: as §1

[3] = target: T2, huROR1-His (human ROR1 ECD AA30-406 with C-terminal His tag, made in house) (human, UniProt Q01973 30-406); assay: ELISA, huROR1-His coated plate, goat anti-human Fc-HRP, OD450
T2 construct: range 30-406; Expressed in HEK293; also called antigen protein huROR1-His; not shown: C-terminal His tag
T2 sequence (Q01973 30-406 limits assumed): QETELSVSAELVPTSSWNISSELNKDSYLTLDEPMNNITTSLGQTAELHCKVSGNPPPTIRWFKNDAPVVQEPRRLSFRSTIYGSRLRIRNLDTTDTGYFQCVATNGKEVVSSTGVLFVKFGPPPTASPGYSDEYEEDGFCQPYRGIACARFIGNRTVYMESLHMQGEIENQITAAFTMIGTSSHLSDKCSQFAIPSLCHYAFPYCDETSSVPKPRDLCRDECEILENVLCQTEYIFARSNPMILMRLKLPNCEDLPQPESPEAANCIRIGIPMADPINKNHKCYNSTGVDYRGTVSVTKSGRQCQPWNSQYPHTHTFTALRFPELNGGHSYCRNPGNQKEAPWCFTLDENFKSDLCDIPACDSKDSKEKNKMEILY

[4] = target: T2, huROR1-His (human ROR1 ECD AA30-406 …); assay: Biacore T200 SPR; huROR1-His amine-coupled (~75 RU), antibody 4 and 20 nM as analyte, 1:1 Langmuir fit
Method: Protein coupling: The huROR1-His protein produced in Example 1.2 was diluted to 5.6 μg/mL with NaAc buffer, pH 5.0, the flow rate was set to 10 μL/min, the chip activation time was set to the default value of 420 s with a mixture of 1-ethyl-(3-dimethylaminopropyl)carbodiimide (EDC) and N-hydroxysuccinimide (NHS), and the antigen protein huROR1-His was fixed to a level of about 75 RU using a coupling mode with a preset coupling amount, and the activated groups that were not bound to the test sample were blocked with ethanolamine.
Sample test conditions: PBS buffer (pH 7.4) containing 0.05% Tween-20 was used as the running buffer, and the running buffer was used as the control test sample. A series of antibody concentrations (4 nM, 20 nM) were set. During sample analysis, the flow rate was set to 30 μL/min, the binding time was 120 s, and the dissociation time was 360 s. After the dissociation was completed, 10 mM Gly-HCl (pH 2.0) was used for regeneration for 20 s to completely remove the antibody bound to the ligand.
Parameter fitting: The experiment was run in multiple cycles, with the response signal taking the analysis time as the horizontal axis and the response value as the vertical axis. After double reference subtraction, the obtained data were fitted by BiAcore T200 analysis software. The fitting model adopted was 1:1 Langmuir binding model, and Affinity metrics such as the binding dissociation constant were determined.

[5] = target: T3, huROR2-His (human ROR2 ECD AA34-403 with C-terminal His tag) (human, UniProt Q01974 34-403); assay: ELISA, huROR2-His coated at 2 µg/mL, goat anti-human Fc-HRP, OD450
T3 construct: range 34-403; Expressed in HEK293; also called human ROR2 antigen protein; not shown: C-terminal His tag
T3 sequence (Q01974 34-403 limits assumed): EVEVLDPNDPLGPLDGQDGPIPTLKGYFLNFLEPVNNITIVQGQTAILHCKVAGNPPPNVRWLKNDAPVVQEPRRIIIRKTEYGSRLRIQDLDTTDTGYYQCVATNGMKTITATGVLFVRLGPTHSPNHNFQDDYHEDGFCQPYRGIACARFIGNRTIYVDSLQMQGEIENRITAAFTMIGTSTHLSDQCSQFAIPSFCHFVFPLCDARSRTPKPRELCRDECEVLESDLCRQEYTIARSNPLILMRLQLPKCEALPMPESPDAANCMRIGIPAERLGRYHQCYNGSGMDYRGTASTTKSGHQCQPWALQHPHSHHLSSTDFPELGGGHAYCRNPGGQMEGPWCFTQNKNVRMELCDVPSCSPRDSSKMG
Method: (§2) 96-well ELISA plate was coated with 2 μg/mL huROR2-His (30 μL/well) at 4° C. overnight. The next day, the plate was washed three times with PBST and then blocked with 5% skim milk for 2 h. […] After washing with PBST for three times, the secondary antibody Goat-anti-human Fc-HRP (abcam, ab97225) was added and incubated for 1 h. After incubation, the plate was washed with PBST for 6 times and TMB (SurModics, TMBS-1000-0) was added for color development. According to the color development results, 2 M HCl was added to terminate the reaction, and the data were read at OD450 using a microplate reader (Molecular Devices, SpecterMax 190).

[6] = target: T4, MusROR1-His (mouse ROR1 ECD AA30-406 with C-terminal His tag) (mouse, UniProt Q9Z139 30-406); assay: ELISA, MusROR1-His coated at 2 µg/mL, goat anti-human Fc-HRP, OD450
T4 construct: range 30-406; Expressed in HEK293; also called mouse ROR1 antigen protein; not shown: C-terminal His tag
T4 sequence (Q9Z139 30-406 limits assumed): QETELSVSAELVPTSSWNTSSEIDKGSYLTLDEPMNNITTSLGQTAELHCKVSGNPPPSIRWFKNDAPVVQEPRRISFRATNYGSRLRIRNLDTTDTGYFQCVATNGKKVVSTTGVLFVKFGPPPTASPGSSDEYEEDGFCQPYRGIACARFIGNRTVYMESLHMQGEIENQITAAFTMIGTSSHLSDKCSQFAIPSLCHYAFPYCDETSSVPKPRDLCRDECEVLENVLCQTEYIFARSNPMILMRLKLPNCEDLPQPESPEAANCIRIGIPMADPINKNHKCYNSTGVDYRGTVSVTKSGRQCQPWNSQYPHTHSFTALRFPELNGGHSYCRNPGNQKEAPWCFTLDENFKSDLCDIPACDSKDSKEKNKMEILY
Method: as §2, with “MusROR1-His” for “huROR2-His”, “TMBS-1000-01)” for “TMBS-1000-0)”

[7] = target: T2, huROR1-His (human ROR1 ECD AA30-406 …); assay: ELISA, huROR1-His coated plate, goat anti-human Fc-HRP, OD450; remark: listed apart in the source
[8] = target: T1, human ROR1 on cells (full-length human …); assay: flow cytometry (FACS) on A549 tumor cells, anti-human IgG-Fc secondary antibody, MFI; remark: listed apart in the source
Method: (§3) In this example, the binding activity of the antibody was evaluated using two types of cells, huROR1-HEK293 cells over-expressing human ROR1 and A549 tumor cells.
as §1, with “huROR1-HEK293” for “A549”, “A549” for “HT-29”, “cells/mL, then” for “cells/mL,”, “μL/well cells were” for “µL/well was”, “plate,” for “plate, then”

[9] = target: T1, human ROR1 on cells (full-length human …); assay: flow cytometry (FACS) on huROR1-HEK293 cells, anti-human IgG-Fc secondary antibody, MFI
Method: as §3
as §1, with “huROR1-HEK293” for “A549”, “A549” for “HT-29”, “cells/mL, then” for “cells/mL,”, “μL/well cells were” for “µL/well was”, “plate,” for “plate, then”

[10] = target: T2, huROR1-His (human ROR1 ECD AA30-406 …); assay: ELISA, huROR1-His coated at 2 µg/mL, goat anti-human Fc-HRP, OD450
Method: as §2, with “huROR1-His” for “huROR2-His”, “TMBS-1000-01)” for “TMBS-1000-0)”

[11] = target: T2, huROR1-His (human ROR1 ECD AA30-406 …); assay: Gator (BLI) Advanced Kinetics; antibody 30 nM, huROR1-His 480-7.5 nM
Method: First, Q buffer was prepared with PBS (10 mM pH7.4) (IgG-free, purchased from Jackson ImmunoResearch Lab)+0.02% Tween 20 (purchased from thermo)+0.2% BSA (purchased from source culture), and the stock solution of the test antibody was diluted with the prepared Q buffer to a working solution with a final concentration of 30 nM, the stock solution of the antigen protein huROR1-His was prepared with Q buffer into a working solution with multiple dilutions (480, 240, 120, 60, 30, 15, 7.5 nM), and detection and analysis was then performed with Gator instrument and its accompanying software, selecting the Advanced Kinetics experimental mode is used.

[12] = target: T2, huROR1-His (human ROR1 ECD AA30-406 …); assay: ELISA, huROR1-His coated plate, goat anti-human Fc-HRP, OD450; remark: listed apart in the source

T1 sequence (Q01973 30-937): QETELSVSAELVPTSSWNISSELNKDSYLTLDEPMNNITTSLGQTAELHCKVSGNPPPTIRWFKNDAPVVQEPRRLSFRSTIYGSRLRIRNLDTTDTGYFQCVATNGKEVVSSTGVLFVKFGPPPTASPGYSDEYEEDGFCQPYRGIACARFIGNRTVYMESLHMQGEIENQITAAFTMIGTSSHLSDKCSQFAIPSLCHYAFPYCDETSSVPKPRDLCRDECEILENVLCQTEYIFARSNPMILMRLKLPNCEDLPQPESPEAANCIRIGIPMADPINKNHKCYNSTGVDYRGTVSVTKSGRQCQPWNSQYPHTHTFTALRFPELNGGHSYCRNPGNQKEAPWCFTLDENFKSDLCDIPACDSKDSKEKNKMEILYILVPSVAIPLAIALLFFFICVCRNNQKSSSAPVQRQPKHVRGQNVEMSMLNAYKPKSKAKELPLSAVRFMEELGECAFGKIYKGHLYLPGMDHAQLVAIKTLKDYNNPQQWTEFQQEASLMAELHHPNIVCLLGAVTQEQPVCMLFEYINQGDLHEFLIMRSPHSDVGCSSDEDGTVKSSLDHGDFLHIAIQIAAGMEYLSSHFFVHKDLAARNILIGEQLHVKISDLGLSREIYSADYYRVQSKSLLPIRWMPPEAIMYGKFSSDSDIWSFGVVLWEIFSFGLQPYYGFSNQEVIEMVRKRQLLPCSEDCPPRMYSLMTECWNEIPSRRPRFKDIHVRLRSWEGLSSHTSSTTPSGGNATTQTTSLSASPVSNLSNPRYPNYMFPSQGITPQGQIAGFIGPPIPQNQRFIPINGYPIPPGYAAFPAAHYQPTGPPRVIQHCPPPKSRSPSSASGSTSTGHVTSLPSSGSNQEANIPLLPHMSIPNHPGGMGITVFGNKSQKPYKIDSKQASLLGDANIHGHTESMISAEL

B1: B62-H3L3 (antibody, human IgG1, kappa)
heavy: not shown
light: DIQMTQSPSSLSASVGDRVTITCVTSIDIDDDVNWYQQKPGKAPKLLISAGNTLRPGVPSRFSGSGSGTDFTFTISSLQPEDIATYYCLQSDNLPYTFGGGTKLEIKRTVAAPSVFIFPPSDEQLKSGTASVVCLLNNFYPREAKVQWKVDNALQSGNSQESVTEQDSKDSTYSLSSTLTLSKADYEKHKVYACEVTHQGLSSPVTKSFNRGEC
B1 was tested. Which “EC50 (read off the curve)” value [1] did it give?
The value was about 10 ng/mL.

What about the “EC50 (read off the curve)” value [2] of the same binder?
The value was about 20 ng/mL.

And the EC50 [3]?
The EC50 was 7.21 ng/mL.

B2: B62-H3L3-MMAE (antibody, human IgG1, kappa)
heavy: not shown
light: DIQMTQSPSSLSASVGDRVTITCVTSIDIDDDVNWYQQKPGKAPKLLISAGNTLRPGVPSRFSGSGSGTDFTFTISSLQPEDIATYYCLQSDNLPYTFGGGTKLEIKRTVAAPSVFIFPPSDEQLKSGTASVVCLLNNFYPREAKVQWKVDNALQSGNSQESVTEQDSKDSTYSLSSTLTLSKADYEKHKVYACEVTHQGLSSPVTKSFNRGEC
modifications: MC-VC-PAB-MMAE on cysteine sulfhydryl groups of reduced interchain disulfides; average DAR 3.5 over the whole antibody
notes: conjugated positions not resolved; also called B62-H3L3-MC-VC-PAB-MMAE
What does the source list for B2?
EC50 (read off the curve) [1]: ~20 ng/mL; EC50 (read off the curve) [2]: ~20 ng/mL

B3: B62 (chimeric antibody) (antibody, human IgG1, kappa, V domains shown)
VH: DVKLVESGGGLVQPGGSLKLSCAASGFTFSSYVMSWVRQTPDKRLELVATINSNGGNTYYPDSVKGRFTISRDNAKNTLYLQMSSLKSEDTAMYYCARDSLGLRRRDYAMDYWGQGTSVTVSS
VL: DIVLTQSPASLSMAIGEKVTIRCVTSIDIDDDVNWYQQKPGKPPKLLISAGNTLRPGVPSRFSSSGYGTDFVFTIENMLSEDVADYYCLQSDNLPYTFGGGTKLEIKR
notes: ExpiCHO expression
With B3 as the binder, how does the Kd [4] read?
The Kd was 0.0639 nM.

What about the koff [4] of the same binder?
Its koff is 7.74e-05 s⁻¹.

What about the kon [4] of the same binder?
The kon was 1.21e+06 M⁻¹ s⁻¹.

And the “t 1/2” value [4]?
The value was 2.49 h.

And the EC50 [3]?
Its EC50 is 5.46 ng/mL.

Does B3 bind [5]?
Result: no binding (tested: 1 µg/mL)

What about the “EC50 (read off the curve)” value [6] of the same binder?
The value was about 4 ng/mL.

What about the EC50 [7] of the same binder?
The EC50 was 5.58 ng/mL.

What about the “EC50 (read off the curve)” value [8] of the same binder?
The value was about 6 ng/mL.

What about the “EC50 (read off the curve)” value [9] of the same binder?
Its value is about 70 ng/mL.

What about the EC50 [10] of the same binder?
The EC50 was 8.03 ng/mL.

And the Kd [11]?
Its Kd is 0.984 nM.

And the koff [11]?
The koff was 0.000373 s⁻¹.

What about the kon [11] of the same binder?
The kon was 379000 M⁻¹ s⁻¹.

B4: B31-H3L3-MMAE (antibody, human IgG1, kappa, V domains shown)
VH: EVQLVESGGGLVQPGGSLRLSCAASGFTFSRYAMSWVRQAPGKGLEWVASISRGGSTYYADSVKGRFTISRDNSKNTLYLQMNSLRAEDTAVYYCASYFGNYDAMDYWGQGTTVTVSS
VL: DIQMTQSPSSLSASVGDRVTITCRASQDINNYVSWFQQKPGKAPKSLIYRANRLVSGVPSRFSGSGSGTDFTFTISSLQPEDFATYYCLQFDEFPYTFGGGTKLEIKR
modifications: MC-VC-PAB-MMAE on cysteine sulfhydryl groups of reduced interchain disulfides; average DAR 3.5 over the whole antibody
notes: conjugated positions not resolved; also called B31-H3L3-MC-VC-PAB-MMAE; B31-MMAE
What does the source list for B4?
EC50 (read off the curve) [1]: ~20 ng/mL; EC50 (read off the curve) [2]: ~20 ng/mL

B5: B31-H2L2 (antibody, human IgG1, kappa, V domains shown)
VH: EVQLVESGGGLVQPGGSLRLSCAASGFTFSRYAMSWVRQAPGKGLEWVASISRGGSTYYADSVKGRFTISRDNAKNTLYLQMSSLRAEDTAVYYCASYFGNYDAMDYWGQGTTVTVSS
VL: DIQMTQSPSSLSASVGDRVTITCKASQDINNYVSWFQQKPGKAPKSLIYRANRLVDGVPSRFSGSGSGTDYTFTISSLQPEDFATYYCLQFDEFPYTFGGGTKLEIKR
How did the EC50 [12] turn out when B5 was run?
The EC50 was 4.57 ng/mL.

B6: B31-H2L3 (antibody, human IgG1, kappa, V domains shown)
VH: EVQLVESGGGLVQPGGSLRLSCAASGFTFSRYAMSWVRQAPGKGLEWVASISRGGSTYYADSVKGRFTISRDNAKNTLYLQMSSLRAEDTAVYYCASYFGNYDAMDYWGQGTTVTVSS
VL: DIQMTQSPSSLSASVGDRVTITCRASQDINNYVSWFQQKPGKAPKSLIYRANRLVSGVPSRFSGSGSGTDFTFTISSLQPEDFATYYCLQFDEFPYTFGGGTKLEIKR
Which EC50 [12] does the source give for B6 here?
Its EC50 is 4.29 ng/mL.

B7: B31-H1L1 (antibody, human IgG1, kappa, V domains shown)
VH: EVQLVESGGGLVQPGGSLRLSCAASGFTFSRYAMSWVRQTPGKRLEWVASISRGGSTYYPDSVKGRFTISRDNAKNTLYLQMSSLRAEDTAMYYCASYFGNYDAMDYWGQGTTVTVSS
VL: DIQMTQSPSSLSASVGDRVTITCKASQDINNYVSWFQQKPGKAPKTLIYRANRLVDGVPSRFSGSGSGQDYTFTISSLQPEDFATYYCLQFDEFPYTFGGGTKLEIKR
notes: also called B31-HIL1
Which EC50 [12] does the source give for B7 here?
The EC50 was 3.24 ng/mL.
